Assay results: publication PMC10764318
pKd: −log10 of the molar value.

Columns and labels:
Assay in all cases: BLI
[1] = biological target: WRAIR-5004 (rhesus macaque)
[2] = biological target: WRAIR-5011 (rhesus macaque)
[3] = biological target: WRAIR-5020 (rhesus macaque)
[4] = biological target: WRAIR-5021 (rhesus macaque)
Sequence of WRAIR-5021 (rhesus macaque) (VH, as listed by the source, chain 1 of 2): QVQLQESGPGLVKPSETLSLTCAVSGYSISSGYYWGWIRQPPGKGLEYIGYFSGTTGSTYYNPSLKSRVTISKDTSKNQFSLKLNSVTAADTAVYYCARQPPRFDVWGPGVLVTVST
Sequence of WRAIR-5021 (rhesus macaque) (VL, as listed by the source, chain 2 of 2): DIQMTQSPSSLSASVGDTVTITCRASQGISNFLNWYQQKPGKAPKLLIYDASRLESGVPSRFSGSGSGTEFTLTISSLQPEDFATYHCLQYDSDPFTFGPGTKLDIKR

Sequence of WRAIR-5020 (rhesus macaque) (VH, as listed by the source, chain 1 of 2): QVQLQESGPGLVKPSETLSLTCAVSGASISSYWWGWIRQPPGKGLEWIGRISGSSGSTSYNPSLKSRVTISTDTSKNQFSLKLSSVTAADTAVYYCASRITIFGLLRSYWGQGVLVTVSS
Sequence of WRAIR-5020 (rhesus macaque) (VL, as listed by the source, chain 2 of 2): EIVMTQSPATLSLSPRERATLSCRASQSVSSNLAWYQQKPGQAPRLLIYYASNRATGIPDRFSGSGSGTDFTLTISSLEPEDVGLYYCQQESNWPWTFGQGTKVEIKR
Sequence of WRAIR-5011 (rhesus macaque) (VH, as listed by the source, chain 1 of 2): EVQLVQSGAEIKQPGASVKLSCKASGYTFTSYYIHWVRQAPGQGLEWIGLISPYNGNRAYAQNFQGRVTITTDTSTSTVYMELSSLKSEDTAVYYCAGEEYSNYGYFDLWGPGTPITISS
Sequence of WRAIR-5011 (rhesus macaque) (VL, as listed by the source, chain 2 of 2): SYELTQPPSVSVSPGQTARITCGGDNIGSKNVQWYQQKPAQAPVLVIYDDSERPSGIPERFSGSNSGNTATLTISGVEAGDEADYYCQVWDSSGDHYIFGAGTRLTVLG
Sequence of WRAIR-5004 (rhesus macaque) (VH, as listed by the source, chain 1 of 2): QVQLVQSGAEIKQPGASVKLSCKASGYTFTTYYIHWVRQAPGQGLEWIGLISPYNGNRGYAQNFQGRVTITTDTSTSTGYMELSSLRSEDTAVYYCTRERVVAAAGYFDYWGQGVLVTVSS
Sequence of WRAIR-5004 (rhesus macaque) (VL, as listed by the source, chain 2 of 2): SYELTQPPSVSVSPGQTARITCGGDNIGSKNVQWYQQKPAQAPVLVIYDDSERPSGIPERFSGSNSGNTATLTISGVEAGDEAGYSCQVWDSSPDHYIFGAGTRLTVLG

## SARS-CoV-2 Delta RBD (from UniProt P0DTC2 331-527) (domain or fragment)
[1]
  pKd: 8.61
[2]
  pKd: 9.32
[3]
  pKd: 6.97
[4]
  pKd: 8.44
